According to patent publication US20090004212A1, “Tumour vaccines for MUC1-positive carcinomas” (priority 1997, published 2009):
No end group written: not given here. *: point of attachment. αGalNAc = CC(=O)N[C@@H]1[C@@H](O)[C@@H](O)[C@@H](CO)O[C@@H]1*

Assays:
[1] = molecular target: T1, HLA-A0201 (Homo sapiens, UniProt P04439, D140Y/D185E/D98H/E176V/E277Q/G131W/G231S/I119V/I121R/I166T/I218V/L300P/L318F/N151K/N90K/P208A/P217A/Q86G/Q94H/R138H/R169H/T345S); assay: MHC stabilization assay on T2 cells; assay type: binding; details: T2 cells, 100 μg peptide, 16 h, W6/32 antibody, FACS
T1 construct: endogenous in cells; host or cells: T2 cell line (TAP-deficient)
Procedure: MHC stabilization assay is based on the increased affinity of HLA-A, -B, -C specific monoclonal W6/32 antibody for the stabilized conformation of MHC molecules after binding of a peptide ligand. The T2 cells express empty MHC molecules with short half-life.
For MHC stabilization assay T2 cells were grown in IMDM medium supplemented with 2% FCS. T2 cells were washed in PBS from the residual serum, and resuspended at 1×10^6/ml of IMDM supplemented with 0.1% FCS and 25 mM HEPES. Half of a million of cells were incubated in 48-well cell culture plate with 1 μg of […]2-microglobulin and 100 μg of peptide for 16 h at 27° C. and 8% CO2. Cells were washed with 5 ml PBS, centrifuged at 180×g for 5 min and the pellet was resuspended in 10 μl PBS containing 1 μg of W6/32 antibody and incubated at 4° C. for 30 minutes.
Subsequently, cells were washed in PBS with 1% BSA (3×5 ml) and the pellet was resuspended in 50 μl of secondary anti-mouse Alexa 488 antibody (1:1000 in PBS with 0.1% BSA), incubated for 30 minutes in the dark, washed with PBS (3×5 ml) and resuspended in 500 μl of PBS. Binding of the W6/32 antibody to MHC class I molecules was analyzed by FACS on the Beckman Coulter ADCXL4C flow cytometer. As a positive control hepatitis B virus core antigen HBVc18-27 P6Y˜C ([…]) was used. As a negative control T2 cells were used, to which no peptide was added.
Relative binding capacities of the peptides were expressed as the percent of the positive control signal (100%), normalized to the negative control (0%). A mean fluorescence that was at least 10% higher than the negative control level was considered positive binding.

[2] = system: T2 target cells; assay: CTL activity against peptide-loaded T2 target cells (CFSE/7-AAD); assay type: cell-based, human; details: T2 cells loaded with 10 μg/ml peptide, 6-hour incubation
Procedure: (§1) Peripheral blood mononuclear cells (PBMCs) were isolated from buffy coats of HLA-A*0201 healthy donors by Ficoll-Hypaque (MP Biomedicals, Solon, Ohio) density gradient centrifugation.
(§2) Dendritic cells (DCs) were generated by culturing adherent monocytes for 6 days in AIM-V medium (Invitrogen, Carlsbad, Calif.) supplemented with 500 U/mL granulocyte macrophage colonystimulating factor (GM-CSF, R&D, Minneapolis, Minn.) and 1000 U/mL interleukin (IL)-4 (R&D), and then matured for 48 hours with a cocktail of cytokines consisting of 10 ng/mL of each, tumor necrosis factor (TNF)-alpha, IL-6, IL-1beta (R&D), and 1 μg/mL prostaglandine E2 (Sigma, St. Louis, Mo.). […] DCs pulsed with single peptides were combined, washed, resuspended and used as stimulator cells. They were added to the autologous lymphocyte fraction in 24-well Linbro plates (ICN, Aurora, Ohio) at a ratio of 1:10 at culture initiation and fed in RPMI 1640 media supplemented with 10% human AB serum, 10 ng/ml rhIL-6 (R&D) and 5 ng/ml rhIL-12 (PreproTech, Rocky Hill, N.J.). On day 10 and thereafter every 9 days, T cells were restimulated at a ratio of 1 DC to 20 T cells, in RPMI 1640 media supplemented with 10% human AB serum, rhIL-2 and rhIL-7 (20 U/ml each, R&D).
(§3) Antigen Specificity was Assessed after 4 Stimulations. Three Days Past Each stimulation cell supernatant was collected and IFNy secretion was quantified using OptElA human IFNy ELISA kit (BD). CD8+ T-cells were enriched using magnetic microbeads (human CD8+ T Cell Isolation Kit II from Miltenyi Biotech, Auburn, Calif.) according to the manufacture's instructions and analyzed by flow cytometry for intracellular IFN-gamma and TNF-alpha production after a final 5-hour restimulation with peptide-loaded DCs in the presence of monensin (Golgi Stop, BD; 21). CTL activity was determined 3 days after the last restimulation. […] They were washed, labeled with 5- (and 6)-carboxyfluorescein diacetate succinimidyl ester (CFSE) according to the manufacture's instructions (Immunochemistry, Bloomington, Minn.) and added to a 96-well plate in duplicates at 5000 cells/well. CFSE labeled T2 cells not loaded with peptides were used as controls. CD8+ T effector cells were added at various E:T ratios for a 6-hour incubation at 37° C. Target cell death was detected by adding 7-amino-actinomycin (7-AAD, Immunochemistry) to each well 10 min before data analysis by flow cytometry and analysis was performed according to the manufacture's instructions (22).

[3] = system: CD8+ T-cells; assay: IFN-gamma and TNF-alpha production by peptide-primed T-cells; assay type: cell-based, human; details: after last cycle of restimulation, 4 weeks of in vitro culture
Procedure: as §1, §2, §3

[4] = molecular target: T2, human 20S immunoproteasomes (Homo sapiens, UniProt P28062+P28065+P40306); assay: In vitro proteolysis of MUC1 repeat peptides and glycopeptides by immunoproteasomes; assay type: biochemical
T2 construct: purchased Immatics Biotechnologies (Tübingen, Germany)
Procedure: A 1 mg/ml solution of immunoproteasomes prepared according to a published protocol (20) was purchased from Immatics Biotechnologies (Tübingen, Germany) and stored frozen at −80° C.
(§4) Glycopeptides were incubated with 10 μg of human 20S immunoproteasomes (Immatics) for […], at 37° C., in 10 μl of digestion buffer (20 mM HEPES/KOH, pH 7.6 containing 2 mM Mg(CH3COO)2 and 1 mM DTT) as described (13). Digestion was stopped after 24 h by freezing the sample at −80° C. Human cathepsin-L was purchased from Sigma (Munich, Germany) and solubilized in 0.1 M sodium acetate, pH 5.5, containing 1 mM EDTA and 1 mM dithiothreitol (12). About 5 mU of enzyme were added to sialoglycopeptide substrates SGGP1 to SGGP5 (75-100 μM) in a total volume of 20 μl. The reaction mixtures were incubated at 37° C. for 24 h and 1 μl of trifluoroacetic acid was added to stop the reaction. The reaction products were cleaned by solid-phase extraction on ZipTipC18 pipette tips and 0.5 μl aliquots were applied onto the MALDI target for mass spectrometric analysis. Kinetic studies with the non-glycosylated 100-mer P1 were performed under the same conditions and the products were chromatographed on HPLC for purification and quantification.

[5] = molecular target: T3, Human cathepsin-L (Homo sapiens, UniProt P07711); assay: In vitro proteolysis by cathepsin-L; assay type: biochemical; details: 37° C., 24 h
T3 construct: purchased Sigma (Munich, Germany)
T3 sequence (P07711 114-333): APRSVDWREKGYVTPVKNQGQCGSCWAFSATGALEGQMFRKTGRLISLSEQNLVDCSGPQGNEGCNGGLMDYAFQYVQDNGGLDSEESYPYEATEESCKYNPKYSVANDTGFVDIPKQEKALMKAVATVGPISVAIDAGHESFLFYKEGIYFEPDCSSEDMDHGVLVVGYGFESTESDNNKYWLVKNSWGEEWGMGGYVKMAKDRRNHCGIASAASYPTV
Procedure: as §4

[6] = molecular target: T4, HLA-A*0201 allele of the MHC class I molecule, empty, on the surface of TAP-deficient T2 cells (human); assay: MHC stabilization assay on T2 cells, W6/32 staining, flow cytometry
T4 construct: also called HLA-A2

Molecule | ligation strength (binding to HLA-A0201) [1] | lysis of peptide-pulsed T2 target cells by induced CD8+ T cells [2] | CD8+ cells producing IFN-γ [3] [%] | TNF-α production by CD8+ cells [3] | binding result [6] | also measured
SAPDT(-GalNAc)RPAPG (SAPDTRPAPG) [Peptide F2] | strong binding | efficiently lysed | 22 | not TNF-α |  | ligation strength (binding to HLA-A0201) ([1]; listed as SAP10-T5*): binding comparably strong in the glycosylated and non-glycosylated form; ligation strength (binding to HLA-A0201) ([1]; listed as SAP10-T5-GalNAc): slightly weaker binding; lysis of peptide-pulsed T2 target cells by induced CD8+ T cells ([2]; listed as SAP10-T5*): efficiently kill
(CVISAPDTRPAPGSTAPPAH)x5 [Peptide P1] |  |  |  |  |  | AVERAGE FRAGMENT LENGTH ([4]; digest by immunoproteasomes): 25.2; NUMBER OF FRAGMENTS ([4]; digest by immunoproteasomes, HPLC and MALDI-MS): 105; % of glycopeptide ([4]; glycosylated 8- to 11-meric fragments relative to total 8- to 11-mers): 0%; 8-11 mers (%) ([4]; relative to total amount of digestion products of immunoproteasomal cleavage): 13%; digestion of the substrate by cathepsin L [5]: quantitative digestion of the substrate within 24 h
SAPES(GalNAc)RPAPG [Peptide F3] |  | only minimal increased cell lysis above the background lysis | 18.1 | not TNF-α |  | 
SAPDTRPAPG (fragment of MUC1; listed as Homo sapiens) [Peptide F1] | strongest binders | efficiently lysed | 28.8 | not TNF-α |  | lysis of peptide-pulsed T2 target cells by induced CD8+ T cells ([2]; listed as SAP10): efficiently kill
SAPDTRPAPG (also called F1) [SAP10, non-glycosylated MUC1 tandem repeat peptide SAPDTRPAPG] |  |  |  |  | binds | 
SAPDT(αGalNAc)RPAPG (Glycopeptide; also called SAP10-T5-GalNAc; F2) [SAPDT(-GalNAc)RPAPG (SAP10-T5*)] |  |  |  |  | binds | 
